The text below walks through data of IntAct's records for PubMed 25910212.

The chains are these.
B1: Glial cell line-derived neurotrophic factor (Homo sapiens), P39905 (parent)
chain: MKLWDVVAVCLVLLHTASAFPLPAGKRPPEAPAEDRSLGRRRAPFALSSDSNMPEDYPDQFDDVMDFIQATIKRLKRSPDKQMAVLPRRERNRQAAAANPENSRGKGRRGQRGKNRGCVLTAIHLNVTDLGLGYETKEELIFRYCSGSCDAAETTYDKILKNLSRNRRLVSDKVGQACCRPIAFDDDLSFLDDNLVYHILRKHSAKRCGCI
B2: Cytochrome P450 1A1 (Homo sapiens), P04798 (parent)
chain: MLFPISMSATEFLLASVIFCLVFWVIRASRPQVPKGLKNPPGPWGWPLIGHMLTLGKNPHLALSRMSQQYGDVLQIRIGSTPVVVLSGLDTIRQALVRQGDDFKGRPDLYTFTLISNGQSMSFSPDSGPVWAARRRLAQNGLKSFSIASDPASSTSCYLEEHVSKEAEVLISTLQELMAGPGHFNPYRYVVVSVTNVICAICFGRRYDHNHQELLSLVNLNNNFGEVVGSGNPADFIPILRYLPNPSLNAFKDLNEKFYSFMQKMVKEHYKTFEKGHIRDITDSLIEHCQEKQLDENANVQLSDEKIINIVLDLFGAGFDTVTTAISWSLMYLVMNPRVQRKIQEELDTVIGRSRRPRLSDRSHLPYMEAFILETFRHSSFVPFTIPHSTTRDTSLKGFYIPKGRCVFVNQWQINHDQKLWVNPSEFLPERFLTPDGAIDKVLSEKVIIFGMGKRKCIGETIARWEVFLFLAILLQRVEFSVPLGVKVDMTPIYGLTMKHACCEHFQMQLRS
B3: Claudin-19 (Homo sapiens), Q8N6F1-2 (parent)
chain: MANSGLQLLGYFLALGGWVGIIASTALPQWKQSSYAGDAIITAVGLYEGLWMSCASQSTGQVQCKLYDSLLALDGHIQSARALMVVAVLLGFVAMVLSVVGMKCTRVGDSNPIAKGRVAIAGGALFILAGLCTLTAVSWYATLVTQEFFNPSTPVNARYEFGPALFVGWASAGLAVLGGSFLCCTCPEPERPNSSPQPYRPGPSAAAREYV
partner: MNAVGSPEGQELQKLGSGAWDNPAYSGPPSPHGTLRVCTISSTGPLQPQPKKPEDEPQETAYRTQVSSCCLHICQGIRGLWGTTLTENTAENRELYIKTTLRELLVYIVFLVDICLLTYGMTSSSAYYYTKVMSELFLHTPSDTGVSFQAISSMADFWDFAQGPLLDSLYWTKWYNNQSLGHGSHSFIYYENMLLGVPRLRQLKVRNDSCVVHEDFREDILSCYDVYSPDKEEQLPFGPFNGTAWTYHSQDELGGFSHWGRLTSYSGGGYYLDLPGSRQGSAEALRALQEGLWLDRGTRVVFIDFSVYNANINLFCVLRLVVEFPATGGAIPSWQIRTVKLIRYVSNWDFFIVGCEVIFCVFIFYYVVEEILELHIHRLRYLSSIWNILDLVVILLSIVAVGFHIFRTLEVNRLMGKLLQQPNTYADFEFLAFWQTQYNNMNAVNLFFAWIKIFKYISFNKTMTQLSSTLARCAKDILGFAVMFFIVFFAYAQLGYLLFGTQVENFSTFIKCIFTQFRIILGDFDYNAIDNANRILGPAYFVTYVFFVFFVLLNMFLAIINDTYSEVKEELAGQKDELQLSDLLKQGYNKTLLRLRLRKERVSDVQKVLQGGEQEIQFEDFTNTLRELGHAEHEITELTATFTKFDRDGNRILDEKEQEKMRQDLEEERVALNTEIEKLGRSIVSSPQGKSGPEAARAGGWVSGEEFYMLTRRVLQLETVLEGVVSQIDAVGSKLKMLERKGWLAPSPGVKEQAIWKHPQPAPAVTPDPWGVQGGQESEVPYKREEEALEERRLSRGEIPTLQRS
B4: Acetylcholine receptor subunit gamma (Homo sapiens), P07510-2 (parent)
chain: MHGGQGPLLLLLLLAVCLGAQGRNQEERLLADLMQNYDPNLRPAERDSDVVNVSLKLTLTNLISLNEREEALTTNVWIEMQWCDYRLRWDPRDYEGLWVLRVPSTMVWRPDIVLENKSQTYSTNEIDLQLSQEDGQTIEWIFIDPEAFTENGEWAIQHRPAKMLLDPAAPAQEAGHQKVVFYLLIQRKPLFYVINIIAPCVLISSVAILIHFLPAKAGGQKCTVAINVLLAQTVFLFLVAKKVPETSQAVPLISKYLTFLLVVTILIVVNAVVVLNVSLRSPHTHSMARGVRKVFLRLLPQLLRMHVRPLAPAAVQDTQSRLQNGSSGWSITTGEEVALCLPRSELLFQQWQRQGLVAAALEKLEKGPELGLSQFCGSLKQAAPAIQACVEACNLIACARHQQSHFDNGNEEWFLVGRVLDRVCFLAMLSLFICGTAGIFLMAHYNRVPALPFPGDPRPYLPSPD
partner: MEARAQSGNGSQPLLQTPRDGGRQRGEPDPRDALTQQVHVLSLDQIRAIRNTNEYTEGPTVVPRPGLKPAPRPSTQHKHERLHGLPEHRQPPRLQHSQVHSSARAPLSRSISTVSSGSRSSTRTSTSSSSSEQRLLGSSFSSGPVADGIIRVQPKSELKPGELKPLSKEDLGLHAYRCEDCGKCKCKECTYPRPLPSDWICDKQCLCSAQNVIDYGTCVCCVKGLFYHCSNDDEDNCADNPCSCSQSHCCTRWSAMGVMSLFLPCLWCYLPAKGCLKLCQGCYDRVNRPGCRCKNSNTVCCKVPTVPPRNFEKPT
B5: Interleukin-1 alpha (Homo sapiens), P01583 (parent)
chain: MAKVPDMFEDLKNCYSENEEDSSSIDHLSLNQKSFYHVSYGPLHEGCMDQSVSLSISETSKTSKLTFKESMVVVATNGKVLKKRRLSLSQSITDDDLEAIANDSEEEIIKPRSAPFSFLSNVKYNFMRIIKYEFILNDALNQSIIRANDQYLTAAALHNLDEAVKFDMGAYKSSKDDAKITVILRISKTQLYVTAQDEDQPVLLKEMPEIPKTITGSETNLLFFWETHGTKNYFTSVAHPNLFIATKQDYWVCLAGGPPSITDFQILENQA
B6: ATP synthase mitochondrial F1 complex assembly factor 2 (Homo sapiens), Q8N5M1 (parent)
chain: MWRSCLRLRDGGRRLLNRPAGGPSASMSPGPTIPSPARAYAPPTERKRFYQNVSITQGEGGFEINLDHRKLKTPQAKLFTVPSEALAIAVATEWDSQQDTIKYYTMHLTTLCNTSLDNPTQRNKDQLIRAAVKFLDTDTICYRVEEPETLVELQRNEWDPIIEWAEKRYGVEISSSTSIMGPSIPAKTREVLVSHLASYNTWALQGIEFVAAQLKSMVLTLGLIDLRLTVEQAVLLSRLEEEYQIQKWGNIEWAHDYELQELRARTAAGTLFIHLCSESTTVKHKLLKE
partner: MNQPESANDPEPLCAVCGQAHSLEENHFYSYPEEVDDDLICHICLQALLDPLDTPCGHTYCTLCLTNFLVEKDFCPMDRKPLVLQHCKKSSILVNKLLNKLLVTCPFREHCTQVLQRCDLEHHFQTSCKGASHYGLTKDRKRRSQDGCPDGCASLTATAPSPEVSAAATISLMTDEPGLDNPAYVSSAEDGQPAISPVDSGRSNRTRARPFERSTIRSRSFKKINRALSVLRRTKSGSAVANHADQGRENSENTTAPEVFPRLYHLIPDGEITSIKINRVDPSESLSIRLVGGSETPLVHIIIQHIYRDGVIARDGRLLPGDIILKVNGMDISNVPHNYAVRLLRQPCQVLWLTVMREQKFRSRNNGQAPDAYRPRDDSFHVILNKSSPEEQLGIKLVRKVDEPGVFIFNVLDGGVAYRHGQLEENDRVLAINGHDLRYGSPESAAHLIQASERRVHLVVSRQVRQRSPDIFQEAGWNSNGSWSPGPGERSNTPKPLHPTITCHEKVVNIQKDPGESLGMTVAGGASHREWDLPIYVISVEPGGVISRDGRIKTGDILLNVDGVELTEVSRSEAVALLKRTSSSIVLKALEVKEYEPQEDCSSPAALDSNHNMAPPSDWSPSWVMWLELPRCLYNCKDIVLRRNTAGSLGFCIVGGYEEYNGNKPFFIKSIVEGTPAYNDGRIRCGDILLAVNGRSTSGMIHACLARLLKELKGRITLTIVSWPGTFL
B7: Progranulin (Homo sapiens), P28799 (parent)
chain: MWTLVSWVALTAGLVAGTRCPDGQFCPVACCLDPGGASYSCCRPLLDKWPTTLSRHLGGPCQVDAHCSAGHSCIFTVSGTSSCCPFPEAVACGDGHHCCPRGFHCSADGRSCFQRSGNNSVGAIQCPDSQFECPDFSTCCVMVDGSWGCCPMPQASCCEDRVHCCPHGAFCDLVHTRCITPTGTHPLAKKLPAQRTNRAVALSSSVMCPDARSRCPDGSTCCELPSGKYGCCPMPNATCCSDHLHCCPQDTVCDLIQSKCLSKENATTDLLTKLPAHTVGDVKCDMEVSCPDGYTCCRLQSGAWGCCPFTQAVCCEDHIHCCPAGFTCDTQKGTCEQGPHQVPWMEKAPAHLSLPDPQALKRDVPCDNVSSCPSSDTCCQLTSGEWGCCPIPEAVCCSDHQHCCPQGYTCVAEGQCQRGSEIVAGLEKMPARRASLSHPRDIGCDQHTSCPVGQTCCPSLGGSWACCQLPHAVCCEDRQHCCPAGYTCNVKARSCEKEVVSAQPATFLARSPHVGVKDVECGEGHFCHDNQTCCRDNRQGWACCPYRQGVCCADRRHCCPAGFRCAARGTKCLRREAPRWDAPLRDPALRQLL
partner: B4 partner

In one assay the parent is B1. Particulars: with AGTRAP.
As to T154S, the “effect of a mutation on the interaction” value is given as “with no effect”.
Still for that read-out and setting: in the case of R93W it was “with no effect”; in that of P21S, “with no effect”; in that of D150N, “with no effect”.

A further assay covers variants of B2. Particulars: with CMTM5, Q96DZ9-2.
Chain of CMTM5, Q96DZ9-2 (Q96DZ9 other isoform, or with tags, fused parts or gaps): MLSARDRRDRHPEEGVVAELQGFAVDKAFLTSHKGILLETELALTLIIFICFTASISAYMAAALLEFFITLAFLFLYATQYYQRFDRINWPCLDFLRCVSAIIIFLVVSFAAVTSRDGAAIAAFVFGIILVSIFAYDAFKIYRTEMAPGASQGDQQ
As for I462V, the “effect of a mutation on the interaction” value is recorded as “with no effect”.
On the same count and under the same terms, then T461N, with “with no effect”.

A further assay covers variants of B3. Particulars: with pk2l1_human PKD2L1, Q9P0L9.
As for G20D, the “effect of a mutation on the interaction” value is recorded as “disrupting interaction strength”.
On the same count and under the same terms, in the case of R200Q it was “with no effect”; in that of L90P, “disrupting interaction strength”.

The variants in a further assay derive from B4. The following applies: with spy2_human SPRY2, O43597.
As to R86C, the “effect of a mutation on the interaction” value is “disrupting interaction strength”.
Take V107G: the “effect of a mutation on the interaction” value is “disrupting interaction strength”.
With R187C, the “effect of a mutation on the interaction” value was “disrupting interaction strength”.

Variants of B5 are the subject of another assay. Particulars: with ima7_human KPNA6, O60684.
Consider A114S, for which the “effect of a mutation on the interaction” value was “with no effect”.
On the same count and under the same terms, in the case of S113A it was “with no effect”.

A further assay covers variants of B5. Particulars: with meox2_human MEOX2, P50222.
Chain of meox2_human MEOX2, P50222 (P50222 whole entry): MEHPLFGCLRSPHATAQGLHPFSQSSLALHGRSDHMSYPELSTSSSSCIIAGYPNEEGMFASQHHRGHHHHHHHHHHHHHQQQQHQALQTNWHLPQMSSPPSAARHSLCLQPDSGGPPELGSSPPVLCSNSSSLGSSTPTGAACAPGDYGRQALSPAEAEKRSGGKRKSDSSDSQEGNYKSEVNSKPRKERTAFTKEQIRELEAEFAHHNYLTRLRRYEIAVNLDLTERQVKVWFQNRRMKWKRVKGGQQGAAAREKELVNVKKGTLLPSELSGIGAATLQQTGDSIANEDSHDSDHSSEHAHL
For the variant A114S, the “effect of a mutation on the interaction” value was “with no effect”.
Still for that read-out and setting: then S113A, with “with no effect”.

In another assay the parent is B6. The following applies: with lnx1_human LNX1, Q8TBB1.
Regarding W94R, the “effect of a mutation on the interaction” value is listed as “disrupting interaction strength”.

A further assay covers variants of B7. Particulars: with spy2_human SPRY2, O43597.
Regarding A9D, the “effect of a mutation on the interaction” value is on record as “disrupting interaction strength”.
Still for that read-out and setting: then P248L, with “with no effect”.
